Laboratory results published in patent US20260263521A1 (AIMED BIO, published 2026).

Experiments:
[1] = molecular target: T1, recombinant human CD200R1 Fc chimera protein, CF (R&D systems, 3414-CD) (human, UniProt Q8TD46 27-266); experiment: ELISA, plate-bound human CD200R1-Fc (2 ug/mL), IgG 0.0192-300 nM, anti-human IgG F(ab')2-HRP, OD 450 nm; panel 'human CD200R1'
T1 construct: Bought; also called CD200R1-Fc protein; human CD200R1 Fc protein; Fc part of the bought chimera not given
T1 sequence (looked up): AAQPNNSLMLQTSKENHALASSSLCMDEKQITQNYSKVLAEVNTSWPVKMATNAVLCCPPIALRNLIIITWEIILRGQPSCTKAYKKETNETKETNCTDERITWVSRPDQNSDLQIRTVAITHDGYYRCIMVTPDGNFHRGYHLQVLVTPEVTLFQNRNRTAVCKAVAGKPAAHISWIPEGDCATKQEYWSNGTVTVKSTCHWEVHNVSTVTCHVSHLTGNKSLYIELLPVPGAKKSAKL
Description: 96-well plates were coated with human CD200R1 (R&D systems, 3414-CD) and mouse CD200R1 protein (R&D systems, 2554-CD) at a concentration of 2 μg/mL at 4° C. for 16 hours and then were blocked with 3% skim milk.
Color was developed with a TMB substrate solution (Thermo Scientific, 34029, 1-Step™ TMB-ELISA Ultra Substrate Solution). The color reaction was stopped with stop solution (Invitrogen, SS04, ELISA Stop Solution). The absorbance was measured at an optical density of 450 nm.

[2] = molecular target: T2, human CD200R1 expressed on cells (Jurkat-CD200R1, U937-CD200R1, HH cells) (human, UniProt Q8TD46 25-348); experiment: flow cytometry, U937-CD200R cells
T2 construct: whole, on cells; also called HH (CRL-2105); cell surface-expressed CD200R1
T2 sequence (looked up): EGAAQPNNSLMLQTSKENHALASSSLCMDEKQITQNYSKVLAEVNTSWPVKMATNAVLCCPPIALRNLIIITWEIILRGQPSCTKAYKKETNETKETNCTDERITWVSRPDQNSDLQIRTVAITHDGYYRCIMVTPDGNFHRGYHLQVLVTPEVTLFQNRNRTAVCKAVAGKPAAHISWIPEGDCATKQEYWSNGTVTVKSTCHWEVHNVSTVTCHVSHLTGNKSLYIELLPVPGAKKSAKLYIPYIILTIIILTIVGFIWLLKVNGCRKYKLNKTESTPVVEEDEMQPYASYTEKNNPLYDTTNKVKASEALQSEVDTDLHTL
Description: Two additional wells were treated with 10 μl of mouse IgG1K (BD, #555751) and 5 μl of commercial CD200R1 antibody (Biolegend, #329308) to determine CD200R1 expression on the cell line surface for cell quality control.
The antibodies were serially diluted 10-fold from a maximum concentration of 100 nM to 10 nM, 1 nM, […], and were added to the pre-seeded cells. After reaction for 1 hour at 4° C., the cells were treated with Alexa-647 goat anti-human IgG (H+L) cross-adsorbed secondary antibody (Invitrogen, #A21445) and incubated for an additional 30 minutes at 4° C. After washing twice with FACS buffer, flow cytometry was performed using a Novocyte Flow cytometer (Agilent). Using GraphPad Prism software, the EC₅₀ was determined using a nonlinear graph model of log (agonist) vs. response-variable slope, as shown in Table 32.

Hybrid CD200R1 MH = molecular target: T3, Hybrid CD200R1 MH (mouse;human, UniProt Q9ES57;Q8TD46); experiment: ELISA, plate-bound MH hybrid (1 ug/mL), antibody 0.0192-300 nM, O.D 450 nm; panel 'P001 MH domain-2)'
T3 construct: single domain; mouse D1 over human D2; also called MH hybrid domain; P001 MH domain
T3 sequence (hybrid extracellular part, looked up): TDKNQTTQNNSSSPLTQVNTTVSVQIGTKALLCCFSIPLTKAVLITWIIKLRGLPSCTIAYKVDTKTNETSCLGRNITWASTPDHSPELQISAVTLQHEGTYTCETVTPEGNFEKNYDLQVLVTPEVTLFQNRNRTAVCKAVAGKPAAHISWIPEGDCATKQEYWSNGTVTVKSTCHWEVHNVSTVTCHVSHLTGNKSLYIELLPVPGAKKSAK
Description: Recombinant proteins were produced from the extracellular Ig-like V-type domain and Ig-like C2-type domain of human CD200R1, each designed as human-mouse (HM hybrid domain) and mouse-human (MH hybrid domain) recombinant proteins. A 96-well plate was coated at a concentration of 1 μg/mL with each protein at 4° C. for 16 hours and blocked with 3% skim milk. […] After color development with TMB substrate solution (Thermo Scientific, 34029, 1-Step™ Ultra TMB-ELISA Substrate Solution), the color reaction was stopped with a stop solution (Invitrogen, SS04, ELISA Stop Solution), and the absorbance was measured at an O.D. of 450 nm.

[3] = molecular target: T4, human CD200R1 recombinant protein (construct not stated) (human, UniProt Q8TD46 27-266, limits assumed); experiment: ELISA on human CD200R1, normalized absorbance at 450 nm, 0.0192-300 nM; panel 'Human CD200R1'
T4 sequence (looked up): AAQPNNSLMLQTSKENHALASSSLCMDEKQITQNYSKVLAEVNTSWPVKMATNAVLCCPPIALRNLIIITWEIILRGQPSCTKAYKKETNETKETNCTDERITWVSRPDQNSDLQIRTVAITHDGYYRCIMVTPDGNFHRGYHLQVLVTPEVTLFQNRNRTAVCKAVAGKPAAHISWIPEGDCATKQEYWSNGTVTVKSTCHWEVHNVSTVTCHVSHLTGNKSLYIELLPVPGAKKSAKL

[4] = molecular target: T5, human CD200RLa (Sino Biological, 11620-H08H) recombinant protein (human, UniProt Q6Q8B3 24-239); experiment: ELISA, plate-bound human CD200RLa (2 ug/mL), antibody 0.0192-300 nM, O.D 450 nm; panel 'recombinant human CD200RLa'
T5 construct: Bought; construct not described
T5 sequence (looked up): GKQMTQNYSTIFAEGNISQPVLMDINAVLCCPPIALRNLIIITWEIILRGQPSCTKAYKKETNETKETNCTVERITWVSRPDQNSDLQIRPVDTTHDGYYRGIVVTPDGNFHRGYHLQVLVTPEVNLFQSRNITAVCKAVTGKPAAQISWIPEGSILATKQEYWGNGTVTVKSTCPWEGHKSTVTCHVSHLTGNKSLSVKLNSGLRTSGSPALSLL
Summary of the method: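 Plates coated overnight (16 h, 4° C) with human or cynomolgus CD200RLa recombinant protein, blocked with 3% skim milk; bound antibody detected by TMB colour development, reaction stopped before reading.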

[5] = molecular target: T2, human CD200R1 expressed on cells …; experiment: cell-based or functional assay

B1: P001009 (IgG) (antibody, V domains shown)
VH: EVQLLESGGGLVQPGGSLRLSCAASGFTFSSYDMSWVRQAPGKGLEWVSWISHGGGSIYYADSVKGRFTISRDNSKNTLYLQMNSLRAEDTAVYYCARDAPAYSAPLFDYWGQGTLVTVSS
VL: QSVLTQPPSASGTPGQRVTISCSGSSSNIGNNAVNWYQQLPGTAPKLLIYYDSNRPSGVPDRFSGSKSGTSASLAISGLRSEDEADYYCAAWDDSLSGYVFGGGTKLTVL
notes: also called P001009 WT; P001009 wt
EC50 (read off the curve) [1]: ~0.5 nM
EC50 [2]: 0.41 nM
binding result (Hybrid CD200R1 MH): no binding (tested: 300 nM)
EC50 (read off the curve) [3]: ~2 nM
binding result [4]: no binding (tested: 300 nM)
IC50 (nM) of IL-6 inhibition, LPS-treated U937-CD200R1 cells [5]: 0.35 nM
IC50 (nM) of TNF-α inhibition, LPS-treated U937-CD200R1 cells [5]: 0.62 nM
